Measurements published in patent US20090131317A1, “COMPOUNDS AND PEPTIDES THAT BIND THE TRAIL RECEPTOR” (AFFYMAX, INC., priority 2007, published 2009).
“And” between values parts separate entries of the source, which are not always exact repeats. Equal values may be shown once. Each block holds one molecule with its values, some of them ahead of it. Numbered stars: 1 amine (or outer) side, 2 acyl side, 3 side chain; on linkers, the order of the positions; unused ones are H or OH. Bridge positions count the residues as written; N and C are the ends. Peptide text beside a SMILES is read from it. I, II: the chains in the order shown. Diglycolyl = O=C(COCC(=O)[*:2])[*:1]; DIG = diglycolic acid linker

Columns and labels:
human TRAIL R2 = target: T1, human TRAIL R2 (Homo sapiens, UniProt O14763); assay: AlphaQuest TRAIL R2 receptor binding competition assay (AlphaScreen, biotinylated TRAIL ligand vs TRAIL R2-Fc); conditions: competition with biotinylated TRAIL ligand; single values and ranges over assays; read-out: binding activity (IC50)
T1 construct: purchased R&D Systems, Minneapolis, Minn
Excerpt: Laser excitation (680 nm) of a photosensitizer in the donor bead generates singlet state oxygen molecules, which react with a chemiluminescer in the acceptor bead to generate a detectable light signal (520-620 nm). Because the singlet O2 molecules have an extremely short half-life (i.e., t ½), a signal is generated only when the donor and acceptor beads are brought into close proximity, by TRAIL binding to the R2 receptor. The presence of unlabeled test peptide that competes with TRAIL for binding to the R2 receptor will prevent this binding, resulting in a measurable decrease in light emission.
Recombinant human TRAIL R2-Fc fusion protein (R&D Systems, Minneapolis, Minn.) is diluted in AlphaQuest® buffer to a concentration of 600 pM, pre-mixed with 1.9 μL Protein A-coated acceptor beads and 1.9 μL streptavidin-coated donor beads (Perkin-Elmer®, Waltham, Mass.), then 2 μL is added to each well of the assay plate. […] The plates are sealed with adhesive sealing film and covered with aluminum foil, centrifuged at 600 rpm for 30 seconds and incubated overnight in the dark. […] The raw data are analyzed using GraphPad Prism® software (La Jolla, Calif.) to calculate IC50 values from a 4-parameter logistic equation.

[1] = target: TRAIL R2 receptor on HCT-116 or Jurkat cells (UniProt O14763 56-440, limits assumed); assay: cell-based or functional assay
[2] = target: T2, Recombinant human TRAIL R2-Fc fusion protein (R&D Systems) (human, UniProt O14763 52-182, limits assumed); assay: AlphaQuest competition: displaces biotinylated TRAIL ligand from human TRAIL R2-Fc
T2 construct: Bought from R&D Systems; held on protein A-coated acceptor beads in the AlphaQuest/AlphaScreen assay; also called TRAIL R2 receptor; R2 receptor; not shown: Fc part of the bought fusion protein
Method: The plates are sealed with adhesive sealing film and covered with aluminum foil, centrifuged at 600 rpm for 30 seconds and incubated overnight in the dark. […] The raw data are analyzed using GraphPad Prism® software (La Jolla, Calif.) to calculate IC₅₀ values from a 4-parameter logistic equation.

IC50 (human TRAIL R2): 3550 to 10700 nM
Molecule: CC(=O)N[C@@H](Cc1c[nH]c2ccccc12)C(=O)N[C@@H](CC(=O)O)C(=O)N[C@H]1CSSC[C@@H](C(=O)N[C@H](C(=O)N[C@@H](CCCCN)C(N)=O)C(C)C)NC(=O)[C@H](CCC(N)=O)NC(=O)[C@H](CCCNC(=N)N)NC(=O)[C@H](CCCNC(=N)N)NC(=O)CNC(=O)[C@@H]2CCCN2C(=O)[C@H](CCCNC(=N)N)NC(=O)[C@H](CC(=O)O)NC(=O)[C@H](CC(C)C)NC1=O [SEQ ID NO: 22 monomer] (Ac-WDCLDRPGRRQCVK-NH2; disulfide 3-12)

IC50 (human TRAIL R2): ≥ 100000 nM
Molecule: CC[C@H](C)[C@@H]1NC(=O)[C@H](CCCNC(=N)N)NC(=O)[C@H](CC(N)=O)NC(=O)[C@H](CC(=O)O)NC(=O)[C@H](CC(C)C)NC(=O)[C@@H](NC(=O)[C@H](CC(=O)O)NC(C)=O)CSSC[C@@H](C(=O)N[C@H](C(=O)N[C@@H](CCCCN)C(=O)N[C@@H](CC(C)C)C(N)=O)C(C)C)NC(=O)[C@H](CCC(N)=O)NC(=O)[C@H](CCCNC(=N)N)NC(=O)[C@H](CCCNC(=N)N)NC(=O)CNC1=O [SEQ ID NO: 25 monomer] (Ac-DCLDNRIGRRQCVKL-NH2; disulfide 2-12)

IC50 (human TRAIL R2): 0.025 to 0.092 nM and ~0.061 nM
Molecule: CC[C@H](C)[C@@H]1NC(=O)[C@H](CCCNC(=N)N)NC(=O)[C@H](CC(N)=O)NC(=O)[C@H](CC(=O)O)NC(=O)[C@H](CC(C)C)NC(=O)[C@@H](NC(=O)[C@H](CC(=O)O)NC(=O)[C@H](Cc2c[nH]c3ccccc23)NC(C)=O)CSSC[C@@H](C(=O)N[C@H](C(=O)N[C@@H](CCCNC(=N)N)C(N)=O)C(C)C)NC(=O)[C@H](CCC(N)=O)NC(=O)[C@H](CCCNC(=N)N)NC(=O)[C@H](CCCCNC(=O)COCC(=O)NCCCC[C@@H]2NC(=O)CNC(=O)[C@H]([C@@H](C)CC)NC(=O)[C@H](CCCNC(=N)N)NC(=O)[C@H](CC(N)=O)NC(=O)[C@H](CC(=O)O)NC(=O)[C@H](CC(C)C)NC(=O)[C@@H](NC(=O)[C@H](CC(=O)O)NC(=O)[C@H](Cc3c[nH]c4ccccc34)NC(C)=O)CSSC[C@@H](C(=O)N[C@H](C(=O)N[C@@H](CCCNC(=N)N)C(N)=O)C(C)C)NC(=O)[C@H](CCC(N)=O)NC(=O)[C@H](CCCNC(=N)N)NC2=O)NC(=O)CNC1=O [SEQ ID NO: 33 homodimer] (I: Ac-WDCLDNRIGKRQCVR-NH2 / II: Ac-WDCLDNRIGKRQCVR-NH2; disulfide I:3-I:13, II:3-II:13; linker I:10-II:10 via Diglycolyl)

IC50 (human TRAIL R2): 200 to 5700 nM
Molecule: CC[C@H](C)[C@@H]1NC(=O)[C@H](CCCNC(=N)N)NC(=O)[C@H](CC(N)=O)NC(=O)[C@H](CC(=O)O)NC(=O)[C@H](CC(C)C)NC(=O)[C@@H](NC(=O)[C@H](CC(=O)O)NC(=O)[C@H](Cc2c[nH]c3ccccc23)NC(C)=O)CSSC[C@@H](C(=O)N[C@H](C(=O)N[C@@H](CCCNC(=N)N)C(N)=O)C(C)C)NC(=O)[C@H](CCC(N)=O)NC(=O)[C@H](CCCNC(=N)N)NC(=O)[C@H](CCCCN)NC(=O)CNC1=O [SEQ ID NO: 33 monomer] (Ac-WDCLDNRIGKRQCVR-NH2; disulfide 3-13)

EC50, Jurkat proliferation assay (apoptosis, MTT) [1]: 2000 to 4410 nM
Molecule: Ac-WDCLDNRIGRRQCVKL-NH2 (disulfide 3-13; also: homodimer via DOD linker, site not given here) [peptide homodimer based on the peptide monomer amino acid sequence of SEQ ID NO: 19, DOD linker]

EC50, apoptotic activity in HCT-116 proliferation assay (MTT) [1]: ~1620 nM
Molecule: Ac-WDCLDNRIGRRQCVK(DIG)L-NH2 (disulfide 3-13; also: homodimer joined through DIG linker) [peptide homodimer based on the monomer amino acid sequence of SEQ ID NO: 19, DIG linker]

EC50, Jurkat proliferation assay (apoptosis, MTT) [1]: 1300 to 1660 nM
B1: peptide homodimer based on the peptide monomer amino acid sequence of SEQ ID NO: 29, DIG linker (peptide)
peptide: Ac-WDCLVDRPGRRQCVRLEK-NH2
modifications: disulfide 3-13 (inferred); also: homodimer via diglycolic acid (DIG) linker, site not given here

EC50, Jurkat proliferation assay (apoptosis, MTT) [1]: 611 to 1090 nM
B2: peptide homodimer based on the peptide monomer amino acid sequence of SEQ ID NO: 30, DIG linker (peptide)
peptide: Ac-WDCLVDRPGRRQCVRLERK-NH2
modifications: disulfide 3-13 (inferred); also: homodimer via diglycolic acid (DIG) linker, site not given here

EC50, Jurkat proliferation assay (apoptosis, MTT) [1]: 1400 to 4020 nM
Molecule: Ac-WDCLDNRIGRRQCVKL-NH2 (disulfide 3-13; also: homodimer via IPA linker, site not given here) [peptide homodimer based on the peptide monomer amino acid sequence of SEQ ID NO: 19, IPA linker]

IC50 [2]: 1200 to 2300 nM
B3: peptide monomer based on the amino acid sequence of SEQ ID NO: 22 conjugated to a DIG linker moiety (peptide)
peptide: Ac-WDCLDRPGRRQCVK-NH2
modifications: disulfide 3-12 (inferred); also: DIG linker moiety conjugated, site not given here

IC50 [2]: ~303 nM
Molecule: Ac-GGSWDCLDNRIGRRQCVKL-NH2 (disulfide 6-16 (inferred)) [peptide monomer based on the amino acid sequence of SEQ ID NO: 20]

EC50, Jurkat proliferation assay (apoptosis, MTT) [1]: > 33000 nM
B4: peptide homodimer based on the peptide monomer amino acid sequence of SEQ ID NO: 31, DIG linker (peptide)
peptide: Ac-WDCLVDRPGRRQCVKLER-NH2
modifications: disulfide 3-13 (inferred); also: homodimer via diglycolic acid (DIG) linker, site not given here

IC50 [2]: 6.2 nM
B5: peptide homodimer based on the monomer amino acid sequence of SEQ ID NO: 22, DIG linker (peptide)
peptide: Ac-WDCLDRPGRRQCVK-NH2
modifications: disulfide 3-12 (inferred); also: homodimer via diglycolic acid (DIG) linker, site not given here

IC50 [2]: ~80 nM
Molecule: Ac-WDCLDNRIGRRQCVK-NH2 (disulfide 3-13 (inferred)) [peptide monomer based on the amino acid sequence of SEQ ID NO: 28]

EC50, apoptotic activity in HCT-116 proliferation assay (MTT) [1]: ~480 nM
Molecule: Ac-WDCLDNRIGRRQCVKL-NH2 (disulfide 3-13; also: homotrimer via TSAT linker, site not given here) [peptide homotrimer based on the peptide monomer sequence of SEQ ID NO: 19, TSAT linker]

IC50 [2]: ≥ 100000 nM
Molecule: Ac-DCLDNRIGRRQCVKL-NH2 (disulfide 2-12 (inferred)) [peptide monomer based on the amino acid sequence of SEQ ID NO: 25]
